Patent US20120121583A1 (Genentech, published 2012)

B1: TW-301 (antibody, V domains shown)
VH: QSLEESGGGLVKPGASLTLTCTASGFTFNANYWICWVRQAPGKGLEWIACIYGGGNSGAYYASWATGRFTISRTSSTTVTLQMTSLTAADTATYFCARGPISRDLWGPGTLVTVSL
VL: DVVMTQTPASVSEPVGGTVTIKCQASQSIYSSLAWYQQKPGQPPKLLIYDAFDLASGVSSRFTGSGSGTQFTLTISDLECADAATYYCQSTDYGNSWDGNPFGGGTEVVVT
notes: also called Antibody 301; rabbit antibody 301
B2: TW-301chi (antibody, human IgG1, kappa, V domains shown)
VH: B1 VH
VL: DVVMTQTPASVSEPVGGTVTIKCQASQSIYSSLAWYQQKPGQPPKLLIYDAFDLASGVSSRFTGSGSGTQFTLTISDLECADAATYYCQSTDYGNSWDGNPFGGGTEVVVTR
notes: also called chimeric antibody 301
B3: TW-304chi (antibody, human IgG1, kappa, V domains shown)
VH: QSLEESGGDLVKPGASLTLTCKASGFSFSSTYYMCWVRQAPGKGLEWIGCIYVGSSGAPYYASWAKGRFTISKTSSTTVALQMTSLTPADTATYVCTRSVHFGDLWGPGTLVTVSS
VL: DVVMTQTPSPVSAAVGGTVTIKCQASQSIGNDLSWYQQKPGQRPKLLIYSVSTLASGVPSRFKGSGSGTEYSLTISDVQCADAATYYCQCIDYGNNYVGNTFGGGTEVVVKR
notes: also called chimeric antibody 304
B4: TW-305chi (antibody, human IgG1, kappa, V domains shown)
VH: QEQLVESGGGLVQPGGSLTLSCKASGFDFSTYYMSWVRQAPGKGLEWIGTVYVRQGTTYYASWLNGRFTISSDNAQNTVDLKMNSLTAADTATYFCAKGGYNYDDAFVIWGPGTLVTVSF
VL: AIEMTQTPFSVSAAVGGTVTINCQASQNIYSNLAWYQQKPGQPPKLLMYTASYLASGVPSRFKGSGSRTEYTLTISGVQCADAATYYCQTAYYNSRPDTVAFGGGTEVVVKR
notes: also called chimeric antibody 305; Antibody 305 (chimeric)

Key:
[1] = biological target: Mouse soluble TWEAK (mouse) (UniProt O54907); assay: competition ELISA: antibody pre-incubated with mouse soluble TWEAK 4 ng/ml, binding to coated mouse Fn14:Fc
[2] = biological target: T1, human Flag-tagged soluble TWEAK (amino acids 106-249) (human, UniProt O43508 106-249); assay: competition ELISA: antibody pre-incubated with human Flag-TWEAK 2.5 ng/ml, binding to coated human Fn14:Fc
T1 construct: N-terminal placement here is only an order of listing; not shown: Flag tag
T1 sequence: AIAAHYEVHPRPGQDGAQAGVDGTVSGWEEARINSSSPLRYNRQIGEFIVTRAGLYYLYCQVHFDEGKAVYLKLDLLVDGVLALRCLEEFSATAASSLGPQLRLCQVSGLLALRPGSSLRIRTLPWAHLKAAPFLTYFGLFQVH
Experimental: 96-well Maxisorp® plates (Nunc) were coated with 100 μl 1 μg/ml human Fn14:Fc (extracellular domain of human Fn14 (amino acids 1-75) fused to Fc portion of human IgG1) in PBS per well for 1.5 h at room temperature and blocked with a solution of 5% FBS in PBS for 30 minutes at room temperature under shaking. […] Wells were filled with 100 μl of anti-FLAG-HRP detection antibody, diluted 1:5000 in blocking buffer, and incubated for 1 h at room temperature. After four more wash steps, the signal was developed by addition of 100 μl 3,3,5,5-Tetramethylbenzidine (TMB) solution for approximately ten minutes. The reaction was stopped by adding 100 μl of 1 N HCl, and absorbance measured at 450 nm (reference wavelength 620 nm).

[3] = biological target: T2, Human recombinant soluble TWEAK (human, UniProt O43508 99-249); assay: cell-based or functional assay
T2 sequence: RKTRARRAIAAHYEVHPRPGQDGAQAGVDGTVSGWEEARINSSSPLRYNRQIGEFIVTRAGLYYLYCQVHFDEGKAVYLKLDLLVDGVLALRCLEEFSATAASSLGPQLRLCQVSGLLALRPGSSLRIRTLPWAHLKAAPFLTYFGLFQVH

Biotinylated TWEAK [4] = biological target: T3, Biotinylated TWEAK (Homo sapiens (Human), UniProt O43508 99-249, Biotinylated for capture on the streptavidin sensor; the site or sites of biotinylation are not stated. The active form is a soluble homotrimer; one protomer is given.); assay: Biacore cross-blocking on immobilised biotinylated TWEAK; binding of antibody 2 after saturation with competitor antibody 1 TW-304chi (row), 100 nM each
T3 sequence: T2 sequence
Experimental: (§1) Because of the individual biochemical properties of the TWEAK protein another method had to be developed using TWEAK as ligand. Biotinylated TWEAK was immobilized on the streptavidin-coated chip surface and epitope coverage of consecutively injected antibodies (antibody 1) was measured. The aim was to detect the relative binding levels of a secondary antibody (antibody 2) in the presence of an already bound primary antibody. From these relative binding levels a quotient was calculated (Ab2/Ab1, molar ratio given in %, table 7).
(§2) 5 nM of biotinylated TWEAK was immobilized at 20 μl/min for 1 min on a streptavidin coated sensor flow cell. Primary and secondary mAbs were consecutively injected at 10 μl/min for 4 min into the system at 100 nM each until saturation of the respective TWEAK epitopes was achieved. As a reference an SA coated flow cell was used.
(§3) The system was washed with HBS-ET for 20 sec at 30 μl/min followed by two regeneration steps with 1 min at 30 μl/min 6 M GuadHCl and 100 mM HCl. […] The process was repeated by the immobilization of native biotinylated TWEAK protein (feed batch mode) on the same flow cell until the streptavidin sensor surface was completely saturated by biotinylated TWEAK.

[5] = biological target: T4, Biotinylated human soluble TWEAK (amino acids 99-249 of SEQ ID NO: 60) (human, UniProt O43508 99-249, biotinylated (sites not given)); assay: Biacore SPR, biotinylated TWEAK on SA sensor, antibody 100 nM as analyte, 25 C; t1/2 = ln(2)/(60 x kd)
T4 construct: Immobilised on the streptavidin sensor in the Biacore half-life assay; also called Human TWEAK; soluble human TWEAK
T4 sequence: T2 sequence
Experimental: A Biacore 2000 instrument was used with a Biacore streptavidin coated sensor mounted into the system. The system buffer HBS-ET (10 mM HEPES pH 7.4, 150 mM NaCl, 1 mM EDTA, 0.05% Tween® 20) was used at a flow rate of 100 μl/min. The sample buffer was the system buffer. Biotinylated human soluble TWEAK (amino acids 99-249 of SEQ ID NO: 60) and biotinylated murine soluble TWEAK (amino acids 81-225 of SEQ ID NO: 61) was immobilized on different flow cells on the SA sensor at 150 RU each. The flow cell FC1 was used as a blank reference cell. Each antibody was injected into the system as an analyte at 100 nM at 100 μl/min for 2 min association time. The dissociation of the immune complexes were monitored for 5 min. The sensor surface was washed with HBS-ET for 10 seconds and regenerated using 2×2 minutes injections with 10 mM glycine pH 2.25. This procedure was done at 25° C. The kinetically rate limiting step of the complex dissociation phase in the interval [240 s-300 s] was taken to calculate the dissociation rate kd [1/s] (Biacore Evaluation Software 4.0). According to the equation t1/2 diss=ln(2)/(60×kd), the half-life of the immunocomplexes in minutes was calculated.

Biotinylated TWEAK [6] = biological target: T3, Biotinylated TWEAK; assay: Biacore cross-blocking on immobilised biotinylated TWEAK; binding of antibody 2 after saturation with competitor antibody 1 TW-305chi (row), 100 nM each
Experimental: as §1, §2, §3

Biotinylated TWEAK [7] = biological target: T3, Biotinylated TWEAK; assay: Biacore cross-blocking on immobilised biotinylated TWEAK; binding of antibody 2 after saturation with competitor antibody 1 TW-301chi (row), 100 nM each
Experimental: as §1, §2, §3

| Binder | IC50 [1] [ng/mL] | IC50 [2] [ng/mL] | IL-8 Secretion IC50 [3] [ng/mL] | MR % (Ab2/Ab1 molar ratio) (Biotinylated TWEAK [4]) [%] | t/2 diss [5] [min] | MR % (Ab2/Ab1 molar ratio) (Biotinylated TWEAK [6]) [%] | MR % (Ab2/Ab1 molar ratio) (Biotinylated TWEAK [7]) [%] |
| --- | --- | --- | --- | --- | --- | --- | --- |
| B1 | 4.7 | 3.4 | 128 |  |  |  |  |
| B2 | 6.4 | 2.8 | 121 | 0 | 110 | 0 | 0 |
| B3 |  | 2.6 | 122 | 0 | 37 | 1 | 6 |
| B4 |  | 2.6 | 104 | 3 | 147 | 0 | 9 |
